Test results reported in patent US20030104422A1.
“And” between values parts separate entries of the source, which are not always exact repeats. Equal values may be shown once.

Columns and labels:
[1] = molecular target: human placental alkaline phosphatase (PLAP, Sigma) (human) (UniProt P05187); assay: ELISA on coated hPLAP; mAb 64 ng/ml spiked in negative serum, diluted 1:8
[2] = molecular target: human placental alkaline phosphatase (PLAP, Sigma) (human) (UniProt P05187); assay: ELISA on coated hPLAP; mAb 64 ng/ml in PBS, diluted 1:32
[3] = molecular target: human placental alkaline phosphatase (PLAP, Sigma) (human) (UniProt P05187); assay: ELISA on coated hPLAP; mAb 64 ng/ml in PBS, undiluted
[4] = molecular target: human placental alkaline phosphatase (PLAP, Sigma) (human) (UniProt P05187); assay: ELISA on coated hPLAP; mAb 64 ng/ml spiked in negative serum, diluted 1:16
[5] = molecular target: human placental alkaline phosphatase (PLAP, Sigma) (human) (UniProt P05187); assay: ELISA on coated hPLAP; mAb 64 ng/ml in PBS, diluted 1:16
[6] = molecular target: human placental alkaline phosphatase (PLAP, Sigma) (human) (UniProt P05187); assay: ELISA on coated hPLAP; mAb 64 ng/ml in PBS, diluted 1:4
[7] = molecular target: human placental alkaline phosphatase (PLAP, Sigma) (human) (UniProt P05187); assay: ELISA on coated hPLAP; mAb 64 ng/ml spiked in negative serum, undiluted
[8] = molecular target: human placental alkaline phosphatase (PLAP, Sigma) (human) (UniProt P05187); assay: ELISA on coated hPLAP; mAb 64 ng/ml in PBS, diluted 1:2
[9] = molecular target: human placental alkaline phosphatase (PLAP, Sigma) (human) (UniProt P05187); assay: ELISA on coated hPLAP; row labelled '0' (apparently no sample, background)
[10] = molecular target: human placental alkaline phosphatase (PLAP, Sigma) (human) (UniProt P05187); assay: ELISA on coated hPLAP; mAb 64 ng/ml spiked in negative serum, diluted 1:32
[11] = molecular target: human placental alkaline phosphatase (PLAP, Sigma) (human) (UniProt P05187); assay: ELISA on coated hPLAP; mAb 64 ng/ml spiked in negative serum, diluted 1:2
[12] = molecular target: human placental alkaline phosphatase (PLAP, Sigma) (human) (UniProt P05187); assay: ELISA on coated hPLAP; mAb 64 ng/ml spiked in negative serum, diluted 1:4
[13] = molecular target: human placental alkaline phosphatase (PLAP, Sigma) (human) (UniProt P05187); assay: ELISA on coated hPLAP; mAb 64 ng/ml spiked in negative serum, diluted 1:64
[14] = molecular target: human placental alkaline phosphatase (PLAP, Sigma) (human) (UniProt P05187); assay: ELISA on coated hPLAP; mAb 64 ng/ml in PBS, diluted 1:64
[15] = molecular target: human placental alkaline phosphatase (PLAP, Sigma) (human) (UniProt P05187); assay: ELISA on coated hPLAP; mAb 64 ng/ml in PBS, diluted 1:8

Chain of UniProt P05187 (P05187 23-506 limits assumed): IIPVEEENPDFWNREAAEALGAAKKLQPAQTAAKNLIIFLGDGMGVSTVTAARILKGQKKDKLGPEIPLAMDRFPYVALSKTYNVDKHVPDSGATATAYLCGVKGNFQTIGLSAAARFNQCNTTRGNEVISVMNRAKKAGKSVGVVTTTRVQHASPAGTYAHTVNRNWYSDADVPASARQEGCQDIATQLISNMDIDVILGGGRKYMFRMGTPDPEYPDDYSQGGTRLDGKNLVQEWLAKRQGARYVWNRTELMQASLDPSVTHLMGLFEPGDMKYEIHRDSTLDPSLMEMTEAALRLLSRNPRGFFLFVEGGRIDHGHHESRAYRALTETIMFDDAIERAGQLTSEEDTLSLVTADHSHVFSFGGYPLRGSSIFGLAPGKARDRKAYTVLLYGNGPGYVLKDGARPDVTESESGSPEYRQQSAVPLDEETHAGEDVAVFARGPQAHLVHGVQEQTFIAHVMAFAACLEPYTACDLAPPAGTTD

Substance	absorbance at 450 nm (absorbance at 450 nm) [1]	absorbance at 450 nm (absorbance at 450 nm) [2]	absorbance at 450 nm (absorbance at 450 nm) [3]	absorbance at 450 nm (absorbance at 450 nm) [4]	absorbance at 450 nm (absorbance at 450 nm) [5]	absorbance at 450 nm (absorbance at 450 nm) [6]	absorbance at 450 nm (absorbance at 450 nm) [7]	absorbance at 450 nm (absorbance at 450 nm) [8]	absorbance at 450 nm (absorbance at 450 nm) [9]	absorbance at 450 nm (absorbance at 450 nm) [10]	absorbance at 450 nm (absorbance at 450 nm) [11]	absorbance at 450 nm (absorbance at 450 nm) [12]	absorbance at 450 nm (absorbance at 450 nm) [13]	absorbance at 450 nm (absorbance at 450 nm) [14]	absorbance at 450 nm (absorbance at 450 nm) [15]
mouse monoclonal antibody to PLAP (clone 8B6, Sigma Immunochemicals)	0.209	0.091	0.486	0.123	0.169	0.424	0.546	0.487	0.007 and 0.009	0.071	0.439	0.341	0.042	0.047	0.282
negative control serum (serum of mice injected with saline)	–	–	–	–	–	–	–	–	0.005	–	–	–	–	–	–
